Target: T1, human iRhom2 (Homo sapiens, UniProt Q6PJF5)
T1 construct: MEF-DKO-hiR2-FL-WT-T7 cells stably expressing human iRhom2 full length wild type; expressed in transfected cells; host or cells: immortalized iRhom1/2-/- double knockout mouse embryonic fibroblasts, pMSCV retroviral infection
T1 sequence (Q6PJF5 1-856): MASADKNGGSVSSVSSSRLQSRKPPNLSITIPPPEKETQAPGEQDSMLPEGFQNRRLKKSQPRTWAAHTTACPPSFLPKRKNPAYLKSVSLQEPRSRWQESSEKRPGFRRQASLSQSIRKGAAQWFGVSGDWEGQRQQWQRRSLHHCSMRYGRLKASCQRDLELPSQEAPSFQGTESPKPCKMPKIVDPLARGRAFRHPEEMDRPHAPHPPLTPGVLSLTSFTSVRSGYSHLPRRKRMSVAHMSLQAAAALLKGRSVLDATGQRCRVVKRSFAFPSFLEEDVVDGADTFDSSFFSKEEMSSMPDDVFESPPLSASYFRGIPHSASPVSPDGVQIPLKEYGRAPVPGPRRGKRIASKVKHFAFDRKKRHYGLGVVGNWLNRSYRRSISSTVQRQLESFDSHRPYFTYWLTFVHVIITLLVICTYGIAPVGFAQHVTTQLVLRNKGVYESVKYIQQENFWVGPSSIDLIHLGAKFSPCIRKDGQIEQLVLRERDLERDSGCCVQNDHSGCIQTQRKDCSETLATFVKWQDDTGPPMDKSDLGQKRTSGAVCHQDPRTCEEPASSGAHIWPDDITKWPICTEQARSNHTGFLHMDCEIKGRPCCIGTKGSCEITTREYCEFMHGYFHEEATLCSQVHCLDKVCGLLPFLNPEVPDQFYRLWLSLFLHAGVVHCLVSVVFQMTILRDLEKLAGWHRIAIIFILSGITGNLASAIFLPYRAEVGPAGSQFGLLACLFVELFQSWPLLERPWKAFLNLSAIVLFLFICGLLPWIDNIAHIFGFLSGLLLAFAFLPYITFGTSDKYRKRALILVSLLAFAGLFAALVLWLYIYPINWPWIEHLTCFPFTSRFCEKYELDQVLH
Experiment: FACS binding to MEF-DKO-hiR2-FL-WT-T7 cells
Conditions: antibody at 3 μg/ml
Excerpt: Next, immortalized iRhom1/2−/− DKO MEFs were reconstituted with a tagged form of human iRhom2 to test target recognition of humanized antibodies of the invention. Additionally, iRhom1/2−/− DKO MEFs stably expressing a tagged form of mouse iRhom2 were generated in order to determine cross-reactivity of the humanized antibodies 16-B-03, 16-B-05, 16-B-07, 23-B-04, 42-B-02 and 42-B-04 of the invention with the mouse orthologue of iRhom2.
In brief, on day 1, Phoenix-ECO cells (American Type Culture Collection, USA) were seeded on 6-well tissue culture plates (Greiner, Germany) in standard growth medium at 8×10^5 cells per well and kept overnight at 37° C., 5% CO2. On day 2, the medium was replaced by fresh medium supplemented with chloroquine (Sigma-Aldrich, USA) at a final concentration of 25 μM. Applying the calcium phosphate method, cells were transfected with 2 μg/ml of pMSCV (Clontech, USA) empty vector, pMSCV-hiR2-FL-WT-T7 encoding human iRhom2 full length wild type C-terminally tagged with 3 consecutive copies of the T7 epitope (MASMTGGQQMG) or pMSCV-miR2-FL-WT-T7 encoding mouse iRhom2 full length wild type C-terminally tagged with 3 consecutive copies of the T7 epitope, and were kept at 37° C., 5% CO2. […]

B1: 16-B-03: humanized antibody binding human iRhom2; HCVD SEQ ID NO 1, LCVD SEQ ID NO 5 (antibody, V domains shown)
VH: QVTLRESGPALVKPTQTLTLTCTFSGFSLSTFALGVGWIRQPPGKALEWLAHIWWDDDKYYNPALKSRLTISKDTSKNQVVLTITNMDPVDTATYYCARITTYYYGMDYWGQGTLVTVSS
VL: EIVMTQSPDFQSVTPKEKVTITCRASQSIGNHLHWYQQKPDASPKLLIKYASQSISGVPSRFSGSGSGTDFTLTINSLEAEDAATYFCQQSYQWPLTFGQGTKLEIK
modifications: antibody sequences
- binding to the human iRhom2 variant on MEF-DKO-hiR2-FL-WT-T7 cells: strong binding
